Results published in patent US20240182593A1 (YUHAN, published 2024).
Positions count from the first letter of the chain named. Names and notes keep the numbering of the source.

T1: human OX40 expressed on cells (human, UniProt P43489 29-277)
T1 construct: whole, on cells
T1 sequence (looked up): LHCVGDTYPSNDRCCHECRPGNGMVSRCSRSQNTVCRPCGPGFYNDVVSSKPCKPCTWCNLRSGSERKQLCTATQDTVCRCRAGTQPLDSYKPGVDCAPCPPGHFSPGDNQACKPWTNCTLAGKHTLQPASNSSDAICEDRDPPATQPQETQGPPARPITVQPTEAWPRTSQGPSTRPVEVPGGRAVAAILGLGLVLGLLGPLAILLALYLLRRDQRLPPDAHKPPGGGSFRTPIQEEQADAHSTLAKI

T2: human OX40 protein (Sino Biological, Cat. 10481-H08H) (human, UniProt P43489 29-216)
T2 construct: Bought recombinant protein; also called CD134; TNFRSF4
T2 sequence (looked up): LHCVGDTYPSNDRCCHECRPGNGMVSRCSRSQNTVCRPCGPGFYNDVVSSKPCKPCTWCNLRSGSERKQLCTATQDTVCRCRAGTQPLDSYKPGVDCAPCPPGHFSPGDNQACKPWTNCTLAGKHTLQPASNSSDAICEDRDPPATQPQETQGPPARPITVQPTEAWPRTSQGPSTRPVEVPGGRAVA

T3: mouse OX40 (ACRO, Cat. OX0-M5259) (mouse, UniProt P47741 20-211)
T3 construct: Bought protein; construct not described; also called mouse OX40 antigen
T3 sequence (looked up): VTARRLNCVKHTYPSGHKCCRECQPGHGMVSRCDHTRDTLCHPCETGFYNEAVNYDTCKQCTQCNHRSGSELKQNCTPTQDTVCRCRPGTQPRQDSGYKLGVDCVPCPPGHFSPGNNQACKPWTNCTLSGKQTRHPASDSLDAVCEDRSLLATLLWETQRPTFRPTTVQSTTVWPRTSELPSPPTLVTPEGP

B1: O410 (antibody, human IgG1, lambda, V domains shown)
VH: EVQLLESGGGLVQPGGSLRLSCAASGFTFSDYYMSWVRQAPGKGLEWVSGIYSDGSRKYYADSVKGRFTISRDNSKNTLYLQMNSLRAEDTAVYYCARHWSRFDYWGQGTLVTVSS
VL: QSVLTQPPSASGTPGQRVTISCSGSSSNIGSNYVTWYQQLPRTAPKLLIYYDSNRPSGVPDRFSGSKSGTSASLAISGLRSEDEADYYCGAWDDSLSGYVFGGGTKLTVLG
B2: O31C (antibody, human IgG1, lambda, V domains shown)
VH: EVQLLESGGGLVQPGGSLRLSCAASGFTFSDYDMSWVRQAPGKGLEWVSSISPSSGSIYYADSVKGRFTISRDNSKNTLYLQMNSLRAEDTAVYYCAKDSIWCTNSRCYYDNAMDVWGQGTLVTVSS
VL: B1 VL with S31N, Y33A, T35S, R42G, Y51S, A91S, D94Y, G98A
B3: O34 (antibody, V domains shown)
VH: B1 VH with Y52S, D54S, S56G, R57N, S101K
VL: QSVLTQPPSASGTPGQRVTISCTGPSSNIGNNDVSWYQQLPGTAPKLLIYANSNRPSGVSDRFSGSKSGTSASLAISGLRSEDEADYYCGTWDYSLSGYVLGGGTKLTVLG
B4: O212 (antibody, V domains shown)
VH: EVQLLESGGGLVQPGGSLRLSCAASGFTFSDYAMSWVRQAPGKGLEWVSWIYYDSGSKYYADSVKGRFTISRDNSKNTLYLQMNSLRAEDTAVYYCAKGPGPNGQLAFDYWGQGTLVTVSS
VL: B3 VL with P25S, N31S, D33S, N54H, S60P, T91A, L101F
notes: also called O212 antibody
B5: O32 (antibody, V domains shown)
VH: B1 VH with D31S, Y33S, G50V, Y52S, D54G, S56G, R57S, K58T, S101R, R102Y
VL: B1 VL with S31N, T35S, R42G, Y51A, N54K, D94S
B6: O15 (antibody, V domains shown)
VH: B1 VH with D31S, Y33S, G50M, Y52S, D54G, S56G, R57S, K58T, S101R, R102Y
VL: B1 VL with S31N, T35S, R42G, Y51A, N54K, D94S
B7: O35 (antibody, V domains shown)
VH: B1 VH with Y33S, G50A, Y52S, S56G, R57S, K58T, H99R, S101Q, R102T
VL: B1 VL with S23T, Y33A, T35S, R42G, Y51H, N54H, R55P, D94S
B8: OX40L-Fc protein (ACROBiosystems, Cat #. OX0-H5255) (Fc fusion, UniProt P23510 51-183, looked up)
chain: QVSHRYPRIQSIKVQFTEYKKEKGFILTSQKEDEIMKVQNNSVIINCDGFYLISLKGYFSQEVNISLHYQKDEEPLFQLKKVRSVNSLMVASLTYKDKVYLNVTTDNTSLDDFHVNGGELILIHQNPGEFCVL
notes: Bought; not shown: Fc part of the bought fusion protein

biological target: T4, cynomolgus monkey OX40 (R&D, Cat. 10311-OX) (cynomolgus monkey); assay: ELISA, cynomolgus monkey OX40 coated at 0.5 ug/ml, serially diluted antibody, goat anti-human Fab secondary antibody, O.D. 450 nm
T4 construct: Bought protein; construct not described; also called Cynomolgus monkey OX40 antigen; Cyno OX40
Protocol: (§1) To determine the cross-species reactivity of anti-OX40 antibodies to mouse and cynomolgus (Cyno) monkey OX40, mouse OX40 (ACRO, Cat. OX0-M5259) and cynomolgus monkey OX40 (R&D, Cat. 10311-OX) antigens were coated on a 96-well plate at a concentration of 0.5 μg/ml, and the plate was incubated overnight at 4° C. After blocking using 3% BSA, serially diluted OX40 antibodies were treated and incubated for 1 hour at room temperature. Goat anti-human Fab (Jackson ImmunoResearch, Cat. 109-036-097) was diluted 1: 5000 and used as a secondary antibody for detection. Absorbance at 450 nm was read using a microplate reader (Molecular Device). To determine EC50 values for dose-dependent binding of OX40 binding antibodies in mice and cynomolgus monkeys, dose-response data were analyzed using a 4-parameter logistic model with GraphPad Prism.

EC50 (read off the curve)	Binder
~20 pM	B1
~80 pM	B2
~20 pM	B3
~20 pM	B4
~200 pM	B5

biological target: T1, human OX40 expressed on cells; assay: flow cytometry on activated human CD4+ T cells, fitted MFI curve
Protocol: (§2) The activity of the OX40-binding antibody prepared in Example 1.3 to bind to activated human T cells was tested as follows.
(§3) To induce OX40 expression, cells were activated for several days prior to the binding assay. Briefly, human CD4⁺ T cells ([…] Technologies) were cultured in the presence of IL-2 (Roche Life Sciences, Indianapolis, IN) and phytohemaglutinin-leucoagglutinin (PHA-L; Roche Life Sciences, Indianapolis, IN) at a concentration of 10 μg/ml for 2 days to activate the human CD4⁺ T cells. The activated CD4⁺ T cells were incubated with OX40-binding antibody serially diluted 5-fold from 1 μM. The bound antibody was detected with a fluorescently labeled anti-human IgG polyclonal secondary antibody, and cells were stained with FITC mouse anti-human CD134 (OX40) antibody clone ACT35 (BD Pharmingen) to detect CD4⁺ T cells expressing OX40. Fluorescence intensity of staining was measured using a BD FACSCantoII flow cytometry analyzer. Mean fluorescence intensity (MFI) of OX40-binding antibody staining was calculated using FlowJo software.

Bottom	Top	Binder
7.36	102	B6
1.04	95.9	B1
5.77	99.9	B3
5.53	99.4	B4
-0.361	97.3	B7
7.69	102	B5

biological target: T1, human OX40 expressed on cells; assay: flow cytometry on activated human CD4+ T cells
Protocol: as §2, §3

EC50	Binder
2.65 nM	B6
0.253 nM	B1
0.182 nM	B3
2.17 nM	B4
1.22 nM	B7
0.102 nM	B5

biological target: T2, human OX40 protein (Sino Biological, …); assay: ELISA, human OX40 protein coated at 0.1 ug/ml, antibody diluted 4-fold from 100 nM, HRP secondary antibody, O.D. 450 nm
Protocol: (§4) ELISA was performed to quantitatively analyze the antigen-binding activity of the OX40-binding antibody prepared in Example 1.3 to the antigen.
(§5) More specifically, the antigen human OX40 protein (Sino Biological, Cat. 10481-H08H) was added to a 96-well plate (Thermo Scientific, Cat. 469949) at a concentration of 0.1 μg/ml, and coated overnight at 4° C. Here, 200 μl of 3% BSA (Millipore, Cat. 820451) was placed in each well and blocked at room temperature for 2 hours. The OX40-binding antibody (Example 1.3) serially diluted 4-fold from 100 nM was added thereto and reacted at room temperature for 2 hours. After washing 4 times with 300 μl of PBS/Tween-20, HRP-bound secondary antibody (Abcam, Cat. Ab98624) was treated and reacted at room temperature for 1 hour. Then, it was washed 4 times with 300 μl of PBS/Tween-20. Following 100 μl of TMB was added thereto to develop color, 100 μl of 2 N H₂SO₄ was added to stop the reaction. The absorbance was measured at 450 nm using a microplate reader (Perkin Elmer, Victor X5).

EC50 (read off the curve)	Binder
~200 pM	B6
~30 pM	B1
~5 pM	B3
~6 pM	B7
~1 pM	B5

biological target: T2, human OX40 protein (Sino Biological, …); assay: SPR (BIACORE T200), same test as for the antibodies (capture on protein A chip, human OX40 as analyte), 1:1 model
Protocol: (§6) Quantitative analysis of antigen binding of the OX40-binding antibody prepared in Example 1.3 was performed using a BIACORE T200. The experimental conditions using surface plasmon resonance (SPR) were as follows: Protein A-immobilized CM5 chip (GE Healthcare) was used. 10 mM Glycine-HCl (pH 1.5) was used as the regeneration buffer, and HBS-EP (pH 7.4) was used as the running buffer, antibody dilution, and antigen dilution buffer. OX40-binding antibody was diluted with HBS-EP (pH 7.4), and human OX40 protein (Sino Biological, Cat. 10481-H08H) was serially diluted two-fold from 200 nM. Analysis was performed at all 11 concentrations (200, 100, 50, 25, 12.5, 6.25, 3.13, 1.56, 0.78, 0.39, 0 nM) including 0 nM. First, the OX40-binding antibody was captured on a chip immobilized with protein A (Thermo, Cat. 21184). In the association phase of human OX40 protein, the association time was set to 400-600 seconds and the flow rate was set to 30 μL/min. In the dissociation phase, the dissociation time was set to 400-2000 seconds and the flow rate was set to 30 μL/min. In the regeneration phase, the flow rate was set to 100 μL/min, and the flow time was set to 30 seconds. By using BIACORE Evaluation software, the data were analyzed and fitted in a 1:1 binding model.

koff	Binder
0.00119 s⁻¹	B8

biological target: T2, human OX40 protein (Sino Biological, …); assay: ELISA, human OX40 protein coated at 0.1 ug/ml, serially diluted antibody, HRP secondary antibody, O.D. 450 nm
Protocol: as §4, §5

EC50 (read off the curve)	Binder
~30 pM	B2

biological target: T2, human OX40 protein (Sino Biological, …); assay: SPR (BIACORE T200), antibody captured on protein A chip, human OX40 as analyte, 1:1 model
Protocol: as §6

Kd	koff	kon	Binder
1.24 nM	4.17e-05 s⁻¹	–	B1
122 nM	0.00238 s⁻¹	–	B2
2.4 nM	5.63e-05 s⁻¹	–	B3
24.4 nM	0.00167 s⁻¹	68300 M⁻¹ s⁻¹	B4
19.9 nM	0.000203 s⁻¹	–	B7
2.05 nM	4.13e-05 s⁻¹	–	B5

biological target: T3, mouse OX40 (ACRO, Cat. OX0-M5259); assay: ELISA, mouse OX40 coated at 0.5 ug/ml, serially diluted antibody, goat anti-human Fab secondary antibody, O.D. 450 nm
Protocol: as §1

binding result	Binder
no binding (tested: about 25000 pM)	B1
